Results from patent publication US20210171654A1.

Assays:
[1] = molecular target: Human SIRPa-His fusion protein (extracellular domain of human SIRPa fused to His-tag) (human) (UniProt P78324); experiment: Biacore (surface plasmon resonance), antibody captured, monomeric human SIRPa-His as analyte
[2] = molecular target: Human SIRPa-His fusion protein (extracellular domain of human SIRPa fused to His-tag) (human) (UniProt P78324); experiment: SPR, Biacore 3000 at 25 C, antibody captured by goat anti-human antibody, SIRPa-His as analyte

B1: 3C2 (parental mouse anti-human SIRPa monoclonal antibody) (antibody, V domains shown)
VH: QVQLQQPGAELVRPGSSVKLSCKASGYTFTSYWMHWVKQRPIQGLEWIGNIDPSDSDTHYNQKFKDKATLTVDKSSSTAYMQLSSLTSEDSAVYYCARGYSKYYAMDYWGQGTSVTVSS
VL: DVLMTQTPLSLSVSLGDQASISCRSSQSIVHSYGNTYLEWYLQKPGQSPKLLIYKVSNRFSGVPDRFSGSGSGTDFTLKISRVEAEDLGVYYCFQGSHVPYTFGGGTKLEIK
Kd [1]: 5.58 nM

B2: Humanized 1H9 (antibody, human IgG1, kappa, N297A, V domains shown)
VH: QVQLVQSGAEVKKPGASVKVSCKASGYTFTSYWITWVKQAPGQGLEWIGDIYPGSGSTNHIEKFKSKATLTVDTSISTAYMELSRLRSDDTAVYYCATGYGSSYGYFDYWGQGTLVTVSS
VL: DIQMTQSPSSLSASVGDRVTITCRASENIYSYLAWYQQKPGKAPKLLIYTAKTLAEGVPSRFSGSGSGTDFTLTISSLQPEDFATYYCQHQYGPPFTFGQGTKLEIKR
Kd [2]: 1.15 nM

B3: Humanized 3C2 (antibody, human IgG1, kappa, N297A, V domains shown)
VH: QVQLVQSGAEVKKPGASVKVSCKASGYTFTSYWMHWVRQAPGQGLEWMGNIDPSDSDTHYNQKFKDRVTMTRDTSTSTVYMELSSLRSEDTAVYYCARGYSKYYAMDYWGQGTLVTVSS
VL: DIVMTQTPLSLSVTPGQPASISCRSSQSIVHSYGNTYLEWYLQKPGQSPQLLIYKVSNRFSGVPDRFSGSGSGTDFTLKISRVEAEDVGVYYCFQGSHVPYTFGQGTKLEIKR
Kd [2]: 5.53 nM

B4: 1H9 (parental mouse anti-human SIRPa monoclonal antibody) (antibody, V domains shown)
VH: QVQLQQPGAERVKPGASVKMSCKASGYTFTSYWITWVKQRPGQGLEWIGDIYPGSGSTNHIEKFKSKATLTVDTSSNTAYMQLSRLTSEDSAVYYCATGYGSSYGYFDYWGQGTTLTVSS
VL: DIQMTQSPASLSASVGETVTITCRASENIYSYLAWYQQKQGKSPQLLVYTAKTLAEGVPSRFSGSGSGTQFSLKINSLQPEDFGNYYCQHQYGPPFTFGSGTRLVIK
Kd [1]: 2.06 nM
